According to US20080009458:

Test system: p53

GST-COP1 was tested, and the “in vitro ubiquitination of p53 (immunoblot of ubiquitinated species of p53)” value was “Only with all of the reaction components and p53 present was COP1 able to directly ubiquitinate p53”.
